US20240199740A1 (Ablynx, published 2024)

What was measured:
[1] = molecular target: T1, human CD123 expressed on cells (human, UniProt P26951 19-378); test: cell-based or functional assay
[2] = molecular target: cynomolgus TCR/CD3 expressed on cells (cynomolgus); test: cell-based or functional assay
[3] = molecular target: T1, human CD123 expressed on cells; test: cell-based or functional assay; remark: listed apart in the source
[4] = molecular target: T2, recombinant human CD123 protein (R&D Systems, 301-R3/CF) (human, UniProt P26951 19-305); test: SPR (ProteOn XPR36), CD123 immobilized
T2 construct: Bought recombinant His-tagged extracellular domain of human CD123; also called recombinant CD123; in house biotinylated-CD123 recombinant protein; not shown: His tag of the bought protein
T2 sequence: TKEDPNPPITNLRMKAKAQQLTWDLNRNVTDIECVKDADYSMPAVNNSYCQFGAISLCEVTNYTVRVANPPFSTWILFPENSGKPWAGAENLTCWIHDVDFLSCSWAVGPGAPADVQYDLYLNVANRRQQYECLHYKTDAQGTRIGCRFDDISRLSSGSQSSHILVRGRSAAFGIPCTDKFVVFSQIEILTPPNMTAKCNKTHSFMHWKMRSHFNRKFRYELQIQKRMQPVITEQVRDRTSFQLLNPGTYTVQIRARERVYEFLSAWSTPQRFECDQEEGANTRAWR

[5] = molecular target: T2, recombinant human CD123 protein (R&D …); test: SPR (ProteOn XPR36), CD123 immobilized; values only indicative (incomplete regeneration)
[6] = molecular target: T1, human CD123 expressed on cells; test: flow cytometry competition, CHO Flp-In huCD123 cells, competitor A0110056A10-Alexa647 (0.9 nM)
[7] = molecular target: T1, human CD123 expressed on cells; test: flow cytometry competition, MOLM-13 cells, competitor A0110056A10-Alexa647 (0.4 nM)
[8] = molecular target: T3, cynomolgus CD123 expressed on HEK Flp-In cells (cynomolgus); test: flow cytometry competition, HEK Flp-In cyCD123 cells, competitor A0110056A10-Alexa647 (0.9 nM)
T3 construct: EHH61867.1; also called cyCD123; cyno CD123
T3 chain: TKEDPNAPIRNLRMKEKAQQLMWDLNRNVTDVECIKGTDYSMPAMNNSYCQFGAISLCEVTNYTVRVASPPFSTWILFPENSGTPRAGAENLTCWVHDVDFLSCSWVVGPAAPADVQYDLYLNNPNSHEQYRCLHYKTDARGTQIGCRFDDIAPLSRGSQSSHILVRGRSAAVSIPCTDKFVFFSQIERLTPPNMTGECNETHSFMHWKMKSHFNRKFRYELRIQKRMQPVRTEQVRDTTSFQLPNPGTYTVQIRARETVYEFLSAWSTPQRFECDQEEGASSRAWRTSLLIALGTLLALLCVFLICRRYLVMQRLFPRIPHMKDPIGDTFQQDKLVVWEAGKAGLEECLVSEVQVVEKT

[9] = molecular target: T1, human CD123 expressed on cells; test: cell-based or functional assay; remark: listed apart in the source

B1: T017000114 (bispecific antibody)
chain: EVQLVESGGGLVQAGGPLRLSCAASGRTFSSYVMGWFRQAPGKEREFVAAIYWSNGKTQYTDSVKGRFTISGDNAKNTVYLQMNSLNPEDTAVYYCVADKDETGFRTLPIAYDYWGQGTLVTVSSGGGGSGGGGSGGGGSGGGGSGGGGSGGGGSGGGGSEVQLVESGGGLVQAGGSLRLSCAASGITSKINDMGWYRQTPGNYREWVASITATGTTNYRDSVKGRFTISRDNAKSTVYLQMNSLKPEDTTVYYCNTFPPISNFWGQGTLVTVSSGGGGSGGGGSGGGGSGGGGSGGGGSGGGGSGGGGSEVQLVESGGGLVQPGGSLRLSCVASGDVHKINFLGWYRQAPGKEREKVAHISIGDQTDYADSAKGRFTISRDESKNMVYLQMNSLKPEDTAVYFCRAFSRIYPYDYWGQGTLVTVSS
notes: Multispecific Nanobody polypeptide expressed in Pichia; also called A0110055F03-35GS-A0110056A10-35GS-T0170056G05-FLAG3-HIS6; not shown: C-terminal FLAG3-HIS6 tag
- % lysis, killing of MOLM-13 cells by non-activated human T cells, E:T ratio 2:1 [1]: 10%
- % lysis, killing of MOLM-13 cells by non-activated human T cells, E:T ratio 8:1 [1]: 12%
- % lysis, killing of MOLM-13 cells by pre-activated human T cells, E:T ratio 1:2 [1]: 18%
- % lysis, killing of MOLM-13 cells by pre-activated human T cells, E:T ratio 2:1 [1]: 31%
- % lysis, killing of MOLM-13 cells by pre-activated human T cells, E:T ratio 8:1 [1]: 43%
- EC50 (M), killing of MOLM-13 cells by non-activated human T cells, E:T ratio 2:1 [1]: 1.9e-09 M
- EC50 (M), killing of MOLM-13 cells by non-activated human T cells, E:T ratio 8:1 [1]: 1.4e-09 M
- EC50 (M), killing of MOLM-13 cells by pre-activated human T cells, E:T ratio 1:2 [1]: 1e-09 M
- EC50 (M), killing of MOLM-13 cells by pre-activated human T cells, E:T ratio 2:1 [1]: 6.8e-10 M
- EC50 (M), killing of MOLM-13 cells by pre-activated human T cells, E:T ratio 8:1 [1]: 2.4e-10 M
- % lysis, redirected cyno T cell mediated killing of KG1a cells, flow cytometry [2]: 7%
- EC50 (M), redirected cyno T cell mediated killing of KG1a cells, flow cytometry [2]: 1.9e-10 M
- % lysis, redirected human T cell mediated killing of KG1a cells, flow cytometry, E:T 10:1 [3]: 7%
- EC50 (M), redirected human T cell mediated killing of KG1a cells, flow cytometry, E:T 10:1 [3]: 2.4e-10 M
- Kd [4]: 2.3 nM
- koff [4]: 0.00019 s⁻¹
- kon [4]: 84000 M⁻¹ s⁻¹

B2: T017000115 (bispecific antibody)
chain: EVQLVESGGGLVQAGGSLRLSCAASGITSKINDMGWYRQTPGNYREWVASITATGTTNYRDSVKGRFTISRDNAKSTVYLQMNSLKPEDTTVYYCNTFPPISNFWGQGTLVTVSSGGGGSGGGGSGGGGSGGGGSGGGGSGGGGSGGGGSEVQLVESGGGSVQAGGSLRLSCAASGYTIGPYCMGWFRQAPGKEREGVAAINMGGGITYYADSVKGRFTISQDNAKNTVYLLMNSLEPEDTAIYYCAADSTIYASYYECGHGLSTGGYGYDSWGQGTLVTVSSGGGGSGGGGSGGGGSGGGGSGGGGSGGGGSGGGGSEVQLVESGGGLVQPGGSLRLSCVASGDVHKINFLGWYRQAPGKEREKVAHISIGDQTDYADSAKGRFTISRDESKNMVYLQMNSLKPEDTAVYFCRAFSRIYPYDYWGQGTLVTVSS
notes: Multispecific Nanobody polypeptide expressed in Pichia; also called A0110056A10-35GS-cAbLys3(D1E,Q5V,A6E,Q108L)-35GS-T0170056G05-FLAG3-HIS6; not shown: C-terminal FLAG3-HIS6 tag
- Kd [5]: 1.5 nM
- koff [5]: 0.00051 s⁻¹
- kon [5]: 330000 M⁻¹ s⁻¹

B3: T017000121 (bispecific antibody)
chain: EVQLVESGGGSVQAGGSLRLSCAASGYTIGPYCMGWFRQAPGKEREGVAAINMGGGITYYADSVKGRFTISQDNAKNTVYLLMNSLEPEDTAIYYCAADSTIYASYYECGHGLSTGGYGYDSWGQGTLVTVSSGGGGSGGGGSGGGGSGGGGSGGGGSGGGGSGGGGSEVQLVESGGGLVQAGGSLRLSCAASGITSKINDMGWYRQTPGNYREWVASITATGTTNYRDSVKGRFTISRDNAKSTVYLQMNSLKPEDTTVYYCNTFPPISNFWGQGTLVTVSSGGGGSGGGGSGGGGSGGGGSGGGGSGGGGSGGGGSEVQLVESGGGLVQPGGSLRLSCVASGDVHKINFLGWYRQAPGKEREKVAHISIGDQTDYADSAKGRFTISRDESKNMVYLQMNSLKPEDTAVYFCRAFSRIYPYDYWGQGTLVTVSS
notes: Multispecific Nanobody polypeptide expressed in Pichia; also called cAbLys3(D1E,Q5V,A6E,Q108L)-35GS-A0110056A10-35GS-T0170056G05-FLAG3-HIS6; not shown: C-terminal FLAG3-HIS6 tag
- IC50 [6]: 23 nM
- IC50 [7]: 26 nM
- IC50 [8]: 110 nM
- Kd [4]: 22 nM
- koff [4]: 0.00086 s⁻¹
- kon [4]: 40000 M⁻¹ s⁻¹

B4: T017000134 (bispecific antibody)
chain: VQLVESGGGLVQAGGSLRLSCAASGITSKINDMGWYRQTPGNYREWVASITATGTTNYRDSVKGRFTISRDNAKSTVYLQMNSLKPEDTTVYYCNTFPPISNFWGQGTLVTVSSGGGGSGGGGSGGGGSGGGGSGGGGSGGGGSGGGGSEVQLVESGGGLVQPGGSLRLSCVASGDVHKINFLGWYRQAPGKEREKVAHISIGDQTDYADSAKGRFTISRDESKNMVYLQMNSLKPEDTAVYFCRAFSRIYPYDYWGQGTLVTVSSGGGGSGGGGSGGGGSGGGGSGGGGSGGGGSGGGGSEVQLVESGGGLVQAGGPLRLSCAASGRTFSSYVMGWFRQAPGKEREFVAAIYWSNGKTQYTDSVKGRFTISGDNAKNTVYLQMNSLNPEDTAVYYCVADKDETGFRTLPIAYDYWGQGTLVTVSSA
- % lysis, redirected human T cell mediated killing of MOLM-13 cells, flow cytometry, E:T 10:1 [9]: 9%
- EC50 (M), redirected human T cell mediated killing of MOLM-13 cells, flow cytometry, E:T 10:1 [9]: 3e-10 M
